Data taken from the RNAGym collection of RNA variant scans (doi:10.1021/acssynbio.7b00057).

B1: Pistol ribozyme (parent)
chain: GGGUCGUUGUUCCAUAAUCGCGUGGAUAUGGCACGCAAGUUUCUACCGGGCACCGUAAAUGUCCGACUGGAGCCGUUCGGGCGGCUAUAAACAGACCUCAGGCCCGAAGCGUGGCGGCACCUGCCGCCGGUGGUAAAAAAGAUCGGAAGAGCACACGUCU

Variants of: B1
Assay: aptazyme ON/OFF ratio, guanine; higher = stronger switching; co-transcriptional cleavage with and without guanine

Row | Variant | aptazyme ON/OFF ratio
1 | U7G U8C G9C U10A U11C C13G | 1.26
2 | U7G U8C G9C U10A U11C C13A | 1.41
3 | U7G U8C G9C U10A U11C C13U | 1.25
4 | U7G U8C G9C U10G U11G C13U | 1.06
5 | U7G U8C G9C U10G U11G C13A | 1.1
6 | U7G U8C G9C U10G U11G C13G | 1.12
7 | U7G U8C G9C U10C U11C C12U | 1.02
8 | U7G U8C G9C U10C U11C C12G | 1.06
9 | U7G U8C G9C U10C U11C C12A | 1.05
10 | U7G U8C G9C U10C U11A C12U | 1.06
11 | U7G U8C G9C U10C U11A C12A | 1.06
12 | U7G U8C G9C U10C U11A C12G | 1.11
13 | U7G U8C G9C U10A U11G C12U | 1.26
14 | U7G U8C G9C U10A U11G C12A | 1.08
15 | U7G U8C G9C U10A U11G C12G | 1.17
16 | U7G U8C G9C U10A U11A C13U | 1.23
17 | U7G U8C G9C U10A U11A C13G | 1.1
18 | U7G U8C G9C U10A U11A C13A | 1.09
19 | U7G U8C G9C U11A | 2.39
20 | U7G U8C G9C U10C U11C C12U C13A | 1.05
21 | U7G U8C G9C U10C U11C C12U C13U | 1.03
22 | U7G U8C G9C U10C U11C C12U C13G | 1.21
23 | U7G U8C G9C U10C U11G C12U | 1.1
24 | U7G U8C G9C U10C U11G C12A | 1.14

Row | Variant | aptazyme ON/OFF ratio
25 | U7G U8C G9C U10C U11G C12G | 1.06
26 | U7G U8C G9C U10A U11G C12G C13G | 1.12
27 | U7G U8C G9C U10A U11G C12G C13A | 1.08
28 | U7G U8C G9C U10A U11G C12G C13U | 1.1
29 | U7G U8C G9C U10C C12U C13G | 1.13
30 | U7G U8C G9C U10C C12U C13A | 1.07
31 | U7G U8C G9C U10C C12U C13U | 1.04
32 | U7G U8C G9C U10G U11A C12U C13A | 1.03
33 | U7G U8C G9C U10G U11A C12U C13U | 1.03
34 | U7G U8C G9C U10G U11A C12U C13G | 1.04
35 | U7G U8C G9C U10G C12G | 1.12
36 | U7G U8C G9C U10G C12U | 1.14
37 | U7G U8C G9C U10G C12A | 1.13
38 | U7G U8C G9C U10C U11C C12G C13U | 1.04
39 | U7G U8C G9C U10C U11C C12G C13A | 1.09
40 | U7G U8C G9C U10C U11C C12G C13G | 1.04
41 | U7G U8C G9C U10A U11G C13A | 1.14
42 | U7G U8C G9C U10A U11G C13G | 1.15
43 | U7G U8C G9C U10A U11G C13U | 1.18
44 | U7G U8C G9C U10C C12G C13A | 1.14
45 | U7G U8C G9C U10C C12G C13U | 1.08
46 | U7G U8C G9C U10C C12G C13G | 1.11
47 | U7G U8C G9C U10G U11G C12U | 1.06
48 | U7G U8C G9C U10G U11G C12G | 1.13

Row | Variant | aptazyme ON/OFF ratio
49 | U7G U8C G9C U10G U11G C12A | 1.17
50 | U7G U8C G9C U10C U11A C12G C13G | 1.17
51 | U7G U8C G9C U10C U11A C12G C13U | 1.12
52 | U7G U8C G9C U10C U11A C12G C13A | 1.2
53 | U7G U8C G9C U10G | 1.17
54 | U7G U8C G9C U10C | 1.92
55 | U7G U8C G9C U10G U11A C13U | 1.05
56 | U7G U8C G9C U10G U11A C13A | 1.05
57 | U7G U8C G9C U10G U11A C13G | 1.19
58 | U7G U8C G9C U10C U11A | 1.39
59 | U7G U8C G9C U10C U11C | 1.05
60 | U7G U8C G9C U10C U11G | 1.05
61 | U7G U8C G9C U10G U11A C12A C13A | 1.1
62 | U7G U8C G9C U10G U11A C12A C13U | 1.25
63 | U7G U8C G9C U10G U11A C12A C13G | 1.11
64 | U7G U8C G9C U10G U11G C12A C13G | 1.13
65 | U7G U8C G9C U10G U11G C12A C13A | 1.11
66 | U7G U8C G9C U10G U11G C12A C13U | 1.1
67 | U7G U8C G9C U10C U11G C12U C13A | 1.08
68 | U7G U8C G9C U10C U11G C12U C13U | 1.08
69 | U7G U8C G9C U10C U11G C12U C13G | 1.08
70 | U7G U8C G9C U10A U11G C12A C13A | 1.1
71 | U7G U8C G9C U10A U11G C12A C13U | 1.11
72 | U7G U8C G9C U10A U11G C12A C13G | 1.12

Row | Variant | aptazyme ON/OFF ratio
73 | U7G U8C G9C U10C U11A C12U C13U | 1.05
74 | U7G U8C G9C U10C U11A C12U C13G | 1.12
75 | U7G U8C G9C U10C U11A C12U C13A | 1.04
76 | U7G U8C G9C U10G C12G C13G | 1.07
77 | U7G U8C G9C U10G C12G C13A | 1.09
78 | U7G U8C G9C U10G C12G C13U | 1.1
79 | U7G U8C G9C U10C C13G | 1.21
80 | U7G U8C G9C U10C C13U | 1.15
81 | U7G U8C G9C U10C C13A | 1.06
82 | U7G U8C G9C U10A U11C C12A C13G | 1.19
83 | U7G U8C G9C U10A U11C C12A C13A | 1.28
84 | U7G U8C G9C U10A U11C C12A C13U | 1.27
85 | U7G U8C G9C U10G C12U C13U | 1.14
86 | U7G U8C G9C U10G C12U C13A | 1.11
87 | U7G U8C G9C U10G C12U C13G | 1.08
88 | U7G U8C G9C U10C C12A C13U | 1.04
89 | U7G U8C G9C U10C C12A C13A | 1.08
90 | U7G U8C G9C U10C C12A C13G | 1.1
91 | U7G U8C G9C U10G U11A C12G C13U | 1.1
92 | U7G U8C G9C U10G U11A C12G C13A | 1.07
93 | U7G U8C G9C U10G U11A C12G C13G | 1.21
94 | U7G U8C G9C U10G C13U | 1.33
95 | U7G U8C G9C U10G C13A | 1.3
96 | U7G U8C G9C U10G C13G | 1.26

Row | Variant | aptazyme ON/OFF ratio
97 | U7G U8C G9C U10A U11C C12G C13U | 1.31
98 | U7G U8C G9C U10A U11C C12G C13G | 1.14
99 | U7G U8C G9C U10A U11C C12G C13A | 1.33
100 | U7G U8C G9C U10C C12G | 1.1
101 | U7G U8C G9C U10C C12U | 1.16
102 | U7G U8C G9C U10C C12A | 1.13
103 | U7G U8C G9C U10G U11A | 1.11
104 | U7G U8C G9C U10G U11C | 1.15
105 | U7G U8C G9C U10G U11G | 1.17
106 | U7G U8C G9C U10G U11A C12A | 1.28
107 | U7G U8C G9C U10G U11A C12G | 1.17
108 | U7G U8C G9C U10G U11A C12U | 1.04
109 | U7G U8C G9C U10G U11C C12G C13A | 1.29
110 | U7G U8C G9C U10G U11C C12G C13U | 1.19
111 | U7G U8C G9C U10G U11C C12G C13G | 1.15
112 | U7G U8C G9C U10A U11C C12U C13U | 1.09
113 | U7G U8C G9C U10A U11C C12U C13G | 1.3
114 | U7G U8C G9C U10A U11C C12U C13A | 1.36
115 | U7G U8C G9C U10G U11G C12G C13U | 1.09
116 | U7G U8C G9C U10G U11G C12G C13A | 1.06
117 | U7G U8C G9C U10G U11G C12G C13G | 1.08
118 | U7G U8C G9C U10C U11C C13U | 0.999
119 | U7G U8C G9C U10C U11C C13G | 1.36
120 | U7G U8C G9C U10C U11C C13A | 1.04

Row | Variant | aptazyme ON/OFF ratio
121 | U7G U8C G9C U10C U11C C12A C13G | 1.21
122 | U7G U8C G9C U10C U11C C12A C13U | 1.05
123 | U7G U8C G9C U10C U11C C12A C13A | 1.05
124 | U7G U8C G9C U10G U11C C12A | 1.36
125 | U7G U8C G9C U10G U11C C12U | 1.12
126 | U7G U8C G9C U10G U11C C12G | 1.21
127 | U7G U8C G9C U10A U11A C12U C13G | 1.09
128 | U7G U8C G9C U10A U11A C12U C13U | 1.08
129 | U7G U8C G9C U10A U11A C12U C13A | 1.07
130 | U7G U8C G9C U10G C12A C13U | 1.13
131 | U7G U8C G9C U10G C12A C13A | 1.1
132 | U7G U8C G9C U10G C12A C13G | 1.1
133 | U7G U8C G9C U10C U11A C13U | 1.03
134 | U7G U8C G9C U10C U11A C13A | 1.04
135 | U7G U8C G9C U10C U11A C13G | 1.11
136 | U7G U8C G9C U10G U11G C12U C13G | 1.09
137 | U7G U8C G9C U10G U11G C12U C13A | 1.09
138 | U7G U8C G9C U10G U11G C12U C13U | 1.12
139 | U7G U8C G9C U10G U11C C13G | 1.36
140 | U7G U8C G9C U10G U11C C13U | 1.34
141 | U7G U8C G9C U10G U11C C13A | 1.15
142 | U7G U8C G9C U10C U11A C12A C13U | 1.04
143 | U7G U8C G9C U10C U11A C12A C13A | 1.04
144 | U7G U8C G9C U10C U11A C12A C13G | 1.09

Row | Variant | aptazyme ON/OFF ratio
145 | U7G U8C G9C U10A U11C C12U | 1.32
146 | U7G U8C G9C U10A U11C C12A | 1.33
147 | U7G U8C G9C U10A U11C C12G | 1.26
148 | U7G U8C G9C U10C U11G C13A | 1.07
149 | U7G U8C G9C U10C U11G C13G | 1.14
150 | U7G U8C G9C U10C U11G C13U | 1.07
151 | U7G U8C G9C U10A U11G C12U C13G | 1.24
152 | U7G U8C G9C U10A U11G C12U C13U | 1.17
153 | U7G U8C G9C U10A U11G C12U C13A | 1.22
154 | U7G U8C G9C U10G U11C C12A C13G | 1.18
155 | U7G U8C G9C U10G U11C C12A C13A | 1.34
156 | U7G U8C G9C U10G U11C C12A C13U | 1.36
157 | U7G U8C G9C U10C U11G C12A C13A | 1.19
158 | U7G U8C G9C U10C U11G C12A C13U | 1.1
159 | U7G U8C G9C U10C U11G C12A C13G | 1.09
160 | U7G U8C G9C U10A U11C | 1.18
161 | U7G U8C G9C U10A U11G | 1.51
162 | U7G U8C G9C U10C U11G C12G C13A | 1.1
163 | U7G U8C G9C U10C U11G C12G C13U | 1.05
164 | U7G U8C G9C U10C U11G C12G C13G | 1.09
165 | U7G U8C G9C U10G U11C C12U C13G | 1.32
166 | U7G U8C G9C U10G U11C C12U C13A | 1.26
167 | U7G U8C G9C U10G U11C C12U C13U | 1.4
